We go through 21 sequences from the DeepSol protein solubility set.

The data set in a line: soluble on expression in E. coli; label from the status in PepcDB or PDB records.
For “MGSDKIHHHHHHMVLKVFKDHFGRGYEVYEKSYREKDSLSFFLTKEEEGKILVVAGEKAPEGLSFFKKQRAEGVSFFFCERNHENLEVLRKYFPDLKPVRAGLRASFGTGDRLGITTPAHVRALKDSGLFPIFAQQSVRENERTGRTWRDVLDDATWGVFQEGYSEGFGADADHVKRPEDLVSAAREGFTMFTIDPSDHVRNLSKLTEKERNEKFEEILRKERIDRIYLGKKYSVLGEKIEFDEKNLRDAALVYYDAIAHVDMMYQILKDETPDFDFEVSVDETETPTSPLFHIFVVEELRRRGVEFTNLALRFIGEWEKGIDYKGDLAQFEREIKMHAEIARMFEGYKISLHSGSDKFSVYPAFASATGGLFHVKTAGTSYLEAVKVISMVNPELFREIYRCTLDHFEEDRKSYHISADLSKVPEVEKVKDEDLPGLFEDINVRQLIHVTYGSVLKDASLKERLFKTLEQNEELFYETVAKHIKRHVDLLEG”, the “soluble on expression in E. coli” value was “not soluble”.
Next, “MKKSNIKTLEQFKDQNYGKKGTAKRDSLEMGYDTFKIGALIQEARIEKGMTQEELAIKCGTTKSYISRIENNIKEVRISTLQKIVELGFGGQLQLSIKF”: “not soluble”; “MAHHHHHHMRPSHKRQAQRQHPRQQCSVAHKAQRAPSSVHGTSGVEHLPRDAVVHVALRKQHRPAGQAHRRIKRHRVVPRRHKVAPHKYHSGARHAHSPTHRHRVLAQQEVAVNKRRNRAANCRNTALHRHAQPQRRLHKKPVHVQRTARRQRHAANHQHANSVAEHRRQLRARDVQHAPRQIHVV”: “soluble”; “MLVLNPFSEKAVSPEDRDMVLRRGIAALDCSWKKVKKSSVIFQTARNHRSLPFLVAANPTNYGKPCILSTAEAVAATLYIVGLKDIASDIMSYFKWGPHFLDLNRELLEAYSRAENSLEVVEIQKKFIGGLEHHHHHH”: “soluble”.
Regarding “MSLKMFEVPVSSVSISINSALLKGCRKFMVLGYGEIGKLAIKHLLSHKVECIYLIVRDKSKASDLEGEIVEVLDFNEKNQVINEIDCIVSCTAAPHTVVRNEDIKTEGETIHIYDLAVPRDVDKELSEKERVILKDIDEISKIDDKNKKIRKERMEEYKHIVEESIDEFLNWLKIREVSSKIRNIKIREGHHHHHH”, the “soluble on expression in E. coli” value is “not soluble”.
As to “MGSDKIHHHHHHMFVCEVRFECFADTTISAAQHAINHLLEAWRANGQILGREFAVSFHDGEFKARLMLPAQDSLANRHNSPWAKAALKGLTDAKILPPREKLLGQDINANESATHTPEWQLLYTSYVHMCSPVRSGDNLLPIPLYKLPATFNGDHKQLIRWQTEWQACDELQMASATKAEFAALDELCNVGSDLFRRGWDLRGRIEYLTKIPTYYYLYRVGGSSLQDELARPCPRCGSTGWRLDEPLLDMFHFRCEPCRIVSNLSWDYQ”, the “soluble on expression in E. coli” value is “not soluble”.
Consider “MDVSMLQSPQKRIKTIQKLAVSKKDVHDFKDIFEMLEEQKEKRNINIIQYDSLDDLSGDWSEYTFFCGNFDSDLFRTLTKHQETQALFIIGASVLKNKLLKNEDLMTLRAARPLYCELMKDVTMKLAAEVPNKRELVDLVHYMGGSVRKDTVSRTNVFIAAKVEAKVQSISLVGVPTMRADWVTECWKHRDDSYFDVMEPCFVDKHRLGVFEGLSLFFHGFKQTEIDDMLRSLENTGGKLAPSPTLATHVVYNPDNDEVETLAVSSNQVHVTKEWFWVSLHRGCCAIEDNFALPTGKLHRKPLESSSVSSPIGKSLRSQNSRSLSSMRDCSVEGPTSLNMTPDYIYSNDDVENSCKSPRQPSKRLRVCMEMVETEKNYLSLLKLVVKFKEALECEISHNEFMSRSDVAMMFGKLDPILELHERIFARLTVMSNEANTLLTVVNGKKNDDKNLDFAQVWIDAKEEMKKAYPQYINSYDTIKRLFDKQDRENSKFHTFCKAKESNPEFHRLKLTDLMVKPVQRLPSVILLLKEMAKKSDSKLKNNAEEAAKAIDEVLKTANKTREKNDNFISHLSKFTDIENVPPILVAANRMFIRELVVSPIASTSPGLQQFAKMKLFLFHDVLIITKIRSEKNTMQRLARHASFASLHSRQRRPYRYIDQIQLNTMRSAFRIRAPDEIAKCLELQQQNGSTKPNVFVWCLIHRDEQGGDIDTVFESNDDEEVRDFLDDIHVKILSDCGRFFYSSDPSDMNEINDAMVSDMTTRYFRNLCGAKPQYGHGSQMNITEWSHNESFMPPPQSQSRMRRAFSNAQLTLATTLGFGRNQSRNNLGQINENTTFLQSPRVSCDPAALANMTSVGGLPGCQSESESTPKRGIRSRLTSTTFLGGRHNILGRNTSMRRQATGFAHSEKELPRSKTSSYRVTDI”, for which the “soluble on expression in E. coli” value is “not soluble”.
As for “SFDRALKPFLQSCHLRMLTDPVDQCVAYHLGRVRESLPELQIEIIADYEVHPNRRPKILAQTAAHVAGAAYYYQRQDVEADPWGNQRISGVCIHPRFGGWFAIRGVVLLPGIEVPDLPPRKPHDCVPTRADRIALLEGFNFHWRDWTYRDAVTPQERYSEEQKAYFSTPPAQRLALLGLAQPSEKPSSPSPDLPFTTPAPKKPGNPSRARSWLSPRVSPPASPGP”, the “soluble on expression in E. coli” value is listed as “soluble”.
“MDDQIKQIAERLRGLRDVLELTAEDIARDCEISAEEYRLAETGDYDISVSMLQKIARKYGIALDALMFGEEPKMSSYFLTRAGKGTSIERTKAYKYQSLAAGFMNRNADPFIVTVEPKPDIEPIHYNSHSGQEFNLVLEGRMMISIDGKDLILNEGDSLYFNSKLPHGMKALDGKTVRFLAVIM”: the “soluble on expression in E. coli” value was “not soluble”.
With “EKRVRRTRSLVEVLNVDPETGDLGINEIFNWYPSEDGFLKVGDSHIMQEIMHVRGWDSGQLRGEMENRRKILTYMYEKNMRSYIQVSLVVQAYQSYPKMVMEAIENNILQGMIQDMVA”, the “soluble on expression in E. coli” value was “not soluble”.
In the case of “MNVNGENNEKIDEHHLESSLAGVPTLPVSPLDHAKDLSQTNPNAQIGDLVTQTANLIAIKKQLLEDIAFNQHIQSMQVRAIQSFPQNNQVAPPFQQFDPRRRGLARMQKPESYKTVICQAWLESKTCSFADNCRFAHGEEELRPTFVEPLQNNKYKTKLCDKYTTTGLCPYGKRCLFIHPDHGPNAYIRADKLLEVSQRHALADIRDQMEQHIMTNGRIAAPPLSAIQHPLEMFARPSTPDEPAAKLPLGPTPVSTRGPRYELPTKELHDAEGAMTYPPSRWPLDPSMFALDAWNMAHRPASPLDSMVLGSAPNAGSFGMLGKQNTPGGVSGYSSAGSTPSQDLSSSSLNAASAAAAAAYFANSAVAQSLLMKSVATDPMMSCNGPFSPMPGFDQLAENMTKHLNLW”, the “soluble on expression in E. coli” value is given as “not soluble”.
Turning to “MGSDKIHHHHHHAQNQDCAFFFPNQEGEQITRNCYTADGKLTNILVYRVDQAYEYPSGMEVVANYTFADAAGKTLNSGQMVARCSDGNFSMSMGDVATFPTALNMMNADVYMMGDLMNYPDAFSNPMNPGDDDEFDDGTLRLYQKGNKNNRAEISVFDREFVTTETVNTPAGAFYCTKVKYEMNIWTPKETIKGYGYEWYAPNIGIVRSEQYNNKKELQSYSVLERIKK”, the “soluble on expression in E. coli” value is on record as “not soluble”.
On to “MRNPIMVTTEVAGEPPGQGRKWAAHGTMAAPRVHTDYHPGGGSACSSVKVRSHVGHTGVFFFVDQDPLAVSLTSQSLIPPLIKPGLLKAWGFLLLCAQPSANGHSLCCLLYTDLVSSHELSPFRALCLGPSDAPSACASCNCLASTYYLLEHHHHHH”, for which the “soluble on expression in E. coli” value is “not soluble”.
For “TAALVINANPFTLGHQYLVEKAAAENELLHLFMVSDDSSLIPFSVRKQLILAGTEHLSNICYHETGPYIISKSIFPSYFQKDQASVIESQARIDLAIFIQIAKYLGIKGRYVGEEPTSLVTGIYNQIMLQELPKQAIDCIVVPRKTYKDGPISASTVRKALKEGNEQILRELLPSTSLNYFLSPEAQPLIKKIQKADNVIHY”, the “soluble on expression in E. coli” value is “not soluble”.
Turning to “MGSDKIHHHHHHMAAILPARITKVLPDSIAAEIGFEAGDALVAINGVQPRDLIDYKFLCSDEFLELEVLDASGKTHHIEIEKDYDEDLGLEFETALFDGLIQCNNRCPFCFIDQQPPGKRSSLYLKDDDYRLSFLYGSYLTLTNLPEREWQRIEQMRLSPLYVSVHATEPEVRIRLLKNQRAAQILDQLRWFQARRLQIHAQVVVCPGINDGKHLEQTLRDLASFHDGDVPTVASVAVVPVGLTRFRPEEDELIPVTREKAQEVIAQVRSLTQEFRRQFGSNVAWLADEWFLIAGEELPSEAEYEEYPQIDNGVGSIRLFLKQFAETAAELLPTKINHPKKLTWVVGNAVEKAFQPILKSLNAVEGLEINMCALSSDYWGQTISVTGLITGHDLLLHLKEQDLGGGILLPNVMLKHGELVFLDDMSVEEVAQKLHTKIIPIAGVKELIKTCITDSVSV”, the “soluble on expression in E. coli” value is listed as “not soluble”.
With “AELLLGVNIDHIATLRNARGTAYPDPVQAAFIAEQAGADGITVHLREDRRHITDRDVRILRQTLDTRMNLEMAVTEEMLAIAVETKPHFCCLVPEKRQEVTTEGGLDVAGQRDKMRDACKRLADAGIQVSLFIDADEEQIKAAAEVGAPFIEIHTGCYADAKTDAEQAQELARIAKAATFAASLGLKVNAGHGLTYHNVKAIAAIPEMHELNIGHAIIGRAVMTGLKDAVAEMKRLMLEARG”, the “soluble on expression in E. coli” value is reported as “soluble”.
Next, “MGSDKIHHHHHHMDNLIIKPGYVTQFQCVGPECEDSCCYDWRISFDKKSYKNTIKHPLLATTAKSAFIETKKSTSDWADIRLNEQGACPFVNEHKLCDIHAKAGEQALSHTCKTYPRIHKVIGGNKYESLYLSCPEVTRLVLFNPNAFQFDSNISGIKQPSTPSPIWLEKTHEYSLDLLVNLGLDWEQVLLAIGLLIKVSDQVRQNILPIEELDKRLQQLKLYAQSGALAEQYKNLPYSPLPQMHAFIAVHNELCKTHSRGVRERFTSLNQAVAALCNEENNYQIDALNQAWAEHAVPALISHTDLFERYILYSIYHHHFPLIDSQQLSWEAFRLLVLDCFMIRSYLSAIAFKNKGLSESDIVMCFQLYQVVRQHKIEFTQSMSKTLEECGIDSVPAAICLLKTNI”: “not soluble”; “MAHHHHHHMPQRSHVPLASPSPLNAPPPLTSRPGPVNYCGAHAEPAAGLNYTHHDDHRSVFRDQASCDPSPSQRALHQQQVHRPRAVSPGPHDGSAPHVSALVARGAVIRADELETILDEQNYIWQMEEYRFRTERQKRLTALQHRQHELMLESARYDQAVAEVERQLARERQRLEELRQMMARNATTSCSPIDREHGLQDPPTAMSDAPHVIARNSSAMHHGQARDHAYSAPHDAPYFPTGASDGLSAMNEEEVIAEV”: “not soluble”.
To “MFSRGASTMQSRELREQLLGCVKSRKSLHVTGPPGSGKSTFVSRLAEALRVKGCRLGGFMAPEVRRGGRRVAFKIVDIASGEEGYLAVADESLAAPGGRRARHGRYLVLVDEAWRVMSHAIRNAFEHADIIIVDEIGPMELAVPGFREALTEILDSGKPLVTVFHRRLRTLDPGLYKLLERGCIVWLDERNRGPLIRLVSEIASALSNEACGNSLEHHHHHH” belongs “not soluble”; to “MSSYDIAIIGGGISGVGIAQYAAAAGYSTLLIEKGEIGGQTSANSSKLIHGGLRYLESGQINLVRKSLLERRNLLDLAPSLVKPVAFYIPVYQDSRRNPLTIRAGLSLYALLSEFDPLGRFVSIPAVHWHRFKGLKLSGLKAVFQYWDAQTDDKLLTQAVARSAQALGAHIYAEAEFLQLNHLKEQIELSFRHRGEVQQIETKLVINAAGPWVNEVLAHVEPPLAGVEIDWVQGAHLLLDLPAPEGILYLESCFDKRVIFVMPWYGQMLIGTTETVLTSIDTPPQVTESETQYLLGIYCHYFPLSPSIEELKTKIVQTYCGVRVLPKQASSAFERPRDTLMQTSISHPRLLCLYGGKLTTFRSSSAEVLEWIEQKLGKRQPIADIDTLKLTLEHHHHHH”, “not soluble”; to “GPGSMPPKKKVERKEEQVFVEENGSYVHQREMARYTGGVRRLTDSNFCCRHGQGTYSSPLIHYEGNWSEDEMHGNGTLRFLVSGDSYTGQFVHGVMEGCGTYIWASGAMYDGGWRGNRMHGLGTYTDVGGKVWSGKFYNGSGPGLTPCVTTGGGVAAADKRDVLKDEKEG”, “not soluble”.
